Data: paper PMC6152271

Biological target: recombinant human soluble catechol-O-methyltransferase (human) (UniProt P21964)

Substance: bovine lactoferrin (natural protein)
- IC50 of inhibition of COMT activity (methyl transfer from 14C-SAM to DBA): 1600 nM
